B1: TPR t1 (parent)
chain: GACCAAUCUGCCCUCAGAGCUCGAGAACAUCUUCGGAUGCAGAGGAGGCAGGCUUCGGUGGCGCGAUAGCGCCAACGUCCUCAACCUCCAAUGCAUCCCACCACAUGAUGAUGCCUGAAGAGCCUUGGUUUUUUG

Variants of B1 are the subject of the series. The series can be described thus: polymerase ribozyme fitness, log enrichment relative to wild type (log ratio); higher = more active; in vitro selection for triplet polymerase activity. The essentials: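 Genotype fitness is the logarithm of its enrichment divided by wild-type enrichment, using inverse-variance-weighted averages of replicates. That logarithm is base 2. Enrichment was measured by Illumina sequencing of input and output libraries from one triplicate in vitro selection round, with frozen incubation at −7 °C, on PCR-built, transcribed mutant libraries of each subunit of a heterodimeric triplet polymerase ribozyme, retaining genotypes with ≥10 input reads and ≥1 read per output.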
Turning to GACCAAUCUGCCCUCAGAGCUCGAGAACAUCUUCGGAUGCAGAGGAGGAAGGCUUCGGUGGCGCGAUAGCGCCAACGACCUCAACCGCCAAUGCAUCCCACCACAUGAUGAUGCCUGAAGAGCCUUGGUAUUUUG [C49A U78A U87G U130A], the “polymerase ribozyme fitness (log ratio)” value is -1.01.
With GACCAAUCUGCCCUCAGAGCUCGAGAACAUCUUCGGAUGCAGAGGAGGAAGGCUUCGGUGGCUCGAUAGCGCCAACGUCCUCAACCUCCAAUGCAUCCCACCACAUGAUGAUGCCUGAAGAGCCUUGGUUUUUUG [C49A G63U] the figure was -1.35.
GACCAAUCUGCCCUCAGAGCUCGAGAACAUCUUCGGAUGCAGAGGAGGAAGGCAUCGGUGGCGCGAUAGCGCCAACUUCCUCAACCUCCAAUGCAUCCCACCACAUGAUGAUGCCUGAAGAGCCUUGGUUUUUUG [C49A U54A G77U]: the “polymerase ribozyme fitness (log ratio)” value was -0.966.
With GACCAAUCUGCCCUCAGAGCUCGAGAACAUCUUCGGAUGCAGAGGAGGGCGGCUUCGGUGGCGCGAUAGCGCCAACGUCCUCAACCUCUACUGCAUCCCACCACAUGAUGAUGCCUGAAGAGCCUUGGUUUUUUG [C49G A50C C89U A91C] the figure was -2.86; with GACCAAUCUGCCCUCAGAGCUCGAGAACAUCUUCGGAUGCAGAGGAGGAAGGCUUCGGUGGCGCGAUAGCGCCAACGUCCUCAACCUCCAAUGCAUCCCACCACAUGAUCAAGCCUGAAGAGCCUUGGUUUUUUG [C49A G110C U112A], -5.99; with GACCAAUCUGCCCUCAGAGCUCGAGAACAUCUUCGGAUGCAGAGGAGGAAGGCUUCGGUGGCGCGAUAGCUCCAACGUCCUCAACCUCAAAUGCAUCCCACCACAUGAUGAUGCCUGAAGAGCCUUGGUCUUUUG [C49A G71U C89A U130C], -2.94.
With GACCAAUCUGCCCUCAGAGCUCGAGAACAUCUUCGGAUGCAGAGGAGGGUGGCUUCGGUGGCGCGAUAGCGCCAACGUCCUCAACCUCCAAUGCAUCCCACCACAUGAUGAUGCCUGAAGAGCCUUGGUUUUUUG [C49G A50U] the figure was -1.05; with GACCAAUCUGCCCUCAGAGCUCGAGAACAUCUUCGGAUGCAGAGGAGGAAGGCUUCGGUGGCGCGAUAGCGCCAACGUCCUCAACCUCCAAUGCAUCCCACCACAUGAUGAUGCCUCAAGAGCCUUGGUUUUUUG [C49A G117C], -3.75; with GACCAAUCUGCCCUCAGAGCUCGAGAACAUCUUCGGAUGCAGAGGAGGGUGGCUUCGGUGGCGCGAUAGCGUCAACGUCCUCAACCUCCAAUGCAUCCCACCACAUGAUGAUGCCUGAAGAGCCUUGGUUUUUUG [C49G A50U C72U], -1.85.
With GACCAAUCUGCCCUCAGAGCUCGAGAACAUCUUCGGAUGCAGAGGAGGAAGGCUUCGGUGGCGCGAUAGCGCCAACGACCUCAACCUCCAAUGCAUCCCACCACAUGAUGAUGCCUGAACAGCCUUGGUUUUUUG [C49A U78A G120C] the figure was 0.377; with GACCAAUCUGCCCUCAGAGCUCGAGAACAUCUUCGGAUGCAGAGGAGGAAGGCUUCGGUGGCACGAUAGAGCCAACGUCCUCAACCUCCAAUGCAUCCCACCACAUGACGAUGCCUGAAGAGCCUUGGUUUUUUG [C49A G63A C70A U109C], -7.14; with GACCAAUCUGCCCUCAGAGCUCGAGAACAUCUUCGGAUGCAGAGGAGGAAGGCUUCGGUGGCGCGAUAGCACCAACGUCCUCAACCUCCAAUGCAUCCCAACACAUGAUGAUGACUGAAGAGCCUUGGUUUUUUG [C49A G71A C101A C114A], -4.05.
On to GACCAAUCUGCCCUCAGAGCUCGAGAACAUCUUCGGAUGCAGAGGAGGAAGGCUUCGGUGGCUCGAUAGCGCCAACGUCCUCAACCUCCAAUGCAUCCCACCACAUGAUGAUGCCUGAAGAGACUUGGUUUUUUG [C49A G63U C123A], for which the “polymerase ribozyme fitness (log ratio)” value was -0.941.
With GACCAAUCUGCCCUCAGAGCUCGAGAACAUCUUCGGAUGCAGAGGAGGAAGGCUUCGGUGGCGCGAUAGCGCCAACGUCCUCAACCUCCAAUGCAUCCCACCACAUGAUGAUGCCUGAAUAGCCUUGGUUUUUUG [C49A G120U] the figure was -0.22.
As for GACCAAUCUGCCCUCAGAGCUCGAGAACAUCUUCGGAUGCAGAGGAGGAAGGCUUCGGAGGCGCGAUAGCGCCAACGUCCUCAACCUCCAAUGCAUCCCACCACAUGAUGAUGCCUGAAGAACCUUGGUUUUUUG [C49A U59A G122A], the “polymerase ribozyme fitness (log ratio)” value is -1.33.
With GACCAAUCUGCCCUCAGAGCUCGAGAACAUCUUCGGAUGCAGAGGAGGAAGGCUUCGGUGGCGCGAUAGCGCCAACGUCCUCAACCUCCAAUGCAUCCCACCACAUGAUGAUGCCUGAAGAGCCUUUGUUUUUUG [C49A G127U] the figure was -1.02.
With GACCAAUCUGCCCUCAGAGCUCGAGAACAUCUUCGGAUGCAGAGGAGGAAGGCUUCGGUGGCGCGAUAGCGCCAACGUCCUCAACCUCCAAUUCAUCCCACCACAUGAUGAGGCCUGAAGAGCCUUGGUUUUUUG [C49A G93U U112G] the figure was -1.59; with GACCAAUCUGCCCUCAGAGCUCGAGAACAUCUUCGGAUGCAGAGGAGGAAGGCUUCGGUGGCGCGAUAGCGCCAACGUCCUCAACCUCCAAUGCAUCCCACCACAUUAUGAUGCCUGAAGAGCCUUGGUUUUUUG [C49A G107U], -4.61; with GACCAAUCUGCCCUCAGAGCUCGAGAACAUCUUCGGAUGCAGAGGAGGAAGGCUUCGGUGGCGCGAUAGCUCCAACGUCCUCAACCUCCAAAGCAUCCCACCACAUGAUGAUGCCUGAAGAGUCUUGGUUUUUUG [C49A G71U U92A C123U], -2.65.
With GACCAAUCUGCCCUCAGAGCUCGAGAACAUCUUCGGAUGCAGAGGAGGAAGGCUUCGGUGGCGCGAUAACGCCAACGUCCUCAACCUCCAAUGCAUCCCACCACAAGAUGAUGCCUGAAGAGCCUUGGUUUUUUG [C49A G69A U106A] the figure was -2.86; with GACCAAUCUGCCCUCAGAGCUCGAGAACAUCUUCGGAUGCAGAGGAGGAAGGCUUCGGUGGCGCGAUAGCACCAACGUCCUCAACCUCCAAUGCAUCCCACCACAUGAUGAUGCCUGAAGAGCCUUGGUUUUUUG [C49A G71A], -0.646.

Values taken from the RNAGym collection of RNA variant scans (doi:10.1073/pnas.2313332121).
